According to PMC3517971:

Tests used:
[1] = target: SpoIIE(590–827), PP2C phosphatase domain of SpoIIE from Bacillus subtilis (B. subtilis) (UniProt P37475); test: crystal structure; crystals from 0.9–1.2 M sodium acetate, 0.1 M Hepes pH 7.5; protein pre-incubated with 1–2 mM MnCl2 for 30 min; space group P6_(1)22; 2.76 Å (PDB 3T9Q)
[2] = target: SpoIIE(590–827), PP2C phosphatase domain of SpoIIE from Bacillus subtilis (B. subtilis) (UniProt P37475); test: crystal structure; crystals from 14–15% polyethylene glycol 400, 0.1 M Tris–HCl (pH 8.5), 0.2 M sodium citrate, 0–50 mM MnCl2; space group P6_(1)22, two molecules in the asymmetric unit; 2.6 Å (PDB 3T91)

SpoIIE(590–827), PP2C phosphatase domain of SpoIIE from Bacillus subtilis (from UniProt P37475 590-827) (domain or fragment)
stoichiometry N [1]: 2
stoichiometry N [2]: 2
